US20190248902A1 (published 2019)
Substitutions are numbered along the chain they refer to.

T1: Human ASGR-2 (human, UniProt P07307 1-311)
T1 construct: Expressed on HEK 293 cells; cDNA GenBank NM_080913.3; also called huASGR-2; hASGR-2
T1 sequence: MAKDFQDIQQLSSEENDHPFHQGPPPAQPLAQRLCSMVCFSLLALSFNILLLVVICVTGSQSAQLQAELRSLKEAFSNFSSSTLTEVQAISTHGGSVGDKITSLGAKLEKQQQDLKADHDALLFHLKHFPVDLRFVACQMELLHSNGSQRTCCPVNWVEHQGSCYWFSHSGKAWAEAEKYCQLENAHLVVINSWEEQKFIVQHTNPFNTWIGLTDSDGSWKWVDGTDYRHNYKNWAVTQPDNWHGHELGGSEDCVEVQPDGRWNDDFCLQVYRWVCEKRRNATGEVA

B1: 12D2 (antibody, V domains shown)
VH: EVQLVESGGGLVKPGGSLRLSCAASGFTFSSYSMNWVRQAPGKGLEWVSSISSSSSYIYYADSVKGRFTISRDNAKNSLYLQMNSLRAEDTAVYYCARLGDYWGQGTLVAVSS
VL: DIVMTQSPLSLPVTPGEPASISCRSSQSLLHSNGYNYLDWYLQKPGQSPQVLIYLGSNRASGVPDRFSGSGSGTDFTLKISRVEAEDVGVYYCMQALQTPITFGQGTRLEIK
notes: Tested as hybridoma supernatant at normalized concentration
B2: 48B12 (antibody, V domains shown)
VH: EVQLLESGGGLVQPGGSLRLSCAASGFTFSSYAMNWVRQAPGKGLEWVSAISGRGGNTFYADSVKGRFTISRDNSKNTLYLQMNSLRAEDTAVYYCAKRETYNWNYEGFDYWGQGTLVTVSS
VL: SYELTQPPSVSVSPGQTARITCSGDALPKKYAYWYQQKSGQAPVLVIYEDSKRPSGIPERFSGSSSGTMATLTISGAQVEDEADYYCNSTDSSGNHVVFGGGTKLTVL
notes: as for B1
B3: 25A4 (antibody, V domains shown)
VH: QVLLVQSGAEVKRPGASVKVSCKASGYTFTNYDINWVRQATGQGLEWMGWMYPNSGNTGYAQKFQGRVTMTRNTSISTAYMELSSLRSEDTAVYYCASSSGWYYFDYWGQGTLVTVSS
VL: DIVMTQFPDSLAVSLGERATIKCKSSQSVLYSSHNNNYLAWYQQKPGQPPKLLLYWASTRESGVPDRFSGSGSGTEFTLTISSLEAEDVAVYYCQQYYSTPPTFGQGTKVEIK
notes: as for B1
B4: 4A2 (antibody, V domains shown)
VH: B3 VH with L3Q, A9T, R13K, Y52H, M70L
VL: DIVMTQSPDSLAVSLGERATINCKSSQSILHSSNNNNYLAWFQQKPGQPPKLLLYWASTRESGVPDRFSGSGSGTDFTLTISSLQPEDVAVYYCQQYYNTPVTFGPGTKVGIK
notes: as for B1
B5: 26C4 (antibody, V domains shown)
VH: B3 VH with L3Q, R13K, T41S, Y52N, K63R, S77N
VL: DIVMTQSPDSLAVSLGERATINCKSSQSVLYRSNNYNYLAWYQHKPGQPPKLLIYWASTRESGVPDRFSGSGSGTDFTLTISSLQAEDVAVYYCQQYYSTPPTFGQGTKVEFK
notes: as for B1
B6: 29H8 (antibody, V domains shown)
VH: B3 VH with L3Q, K12Q, R13K, Y52N, K63R, T78A
VL: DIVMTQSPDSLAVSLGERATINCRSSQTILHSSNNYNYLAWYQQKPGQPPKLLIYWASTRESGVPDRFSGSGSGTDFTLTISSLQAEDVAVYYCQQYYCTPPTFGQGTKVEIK
notes: as for B1
B7: 198D2 (antibody, V domains shown)
VH: QVQLVESGGGVVQPGRSLRLSCAASGFTFRSYGMHWVRQAPGKGLEWVAVIIYDGSYKYYADSVKGRFTISRDNSKNTLYLQMNSLRAEDTAVYYCARTYSGGMDVWGQGTTVTVSS
VL: QSVLTQPPSVSAAPGQKVTISCSGSSSNIGSNYVSWYQQLPGTAPKVLIYDNNKRPSGIPDRFSGSKSGTSATLGITGLQTGDEADYYCGTWDSRLNVGVFGGGTKLTVL
notes: as for B1
B8: 54E9 (antibody, V domains shown)
VH: QVQLVQSGAEVKKPGASVKVSCKASGYTFNSYGISWVRLAPGQGLEWMGWISAYNGNTKNAQKLQGRVTMTTDTSTSTAYMELRSLRSDDTAVYYCARHDFWSGYYKGMDVWGQGTTVTVSS
VL: not shown
notes: as for B1
B9: 194C10 (antibody, V domains shown)
VH: QVQLQQWGAGLLKPSETLSLTCAVSGGSFRYYYWSWIRQPPGKGLEWFGEINHSGSTNYNPSLKSRVTISIDTSKNQFSLKLRSVTAADTAVYYCARDYGAFDIWGQGTMVTVSS
VL: EIVLTQSPGTLSLSPGERATLSCRASPSVNSGYLAWYQQKPGQTPRLLIFGASSRATGIPDRFSASGSGADFTLTISRLEPEDFAVYFCQQYESSPWTFGQGTKVEIK
notes: as for B1
B10: 4B1 (antibody, V domains shown)
VH: QVQLQESGPGLVKPSETLSLTCSVSGDSISSYSWSWIRQPAGKGLEWIGRIYTSGSTNYIPSLKSRITMSVDTSKKQFSLKLSSVTAADTAVYYCARDLKSSGCLFFDYWGQGTLVTVSS
VL: DIQMTQSPSSLSASVGDRVTITCRASHTIRTYLNWYQQKPGKAPKLLIYAASSLQSGVPSRINGSGSGTDFTLTITNLQPEDFATYYCQQSYNISFTFGPGTKVDIK
notes: as for B1
B11: 202A3 (antibody, V domains shown)
VH: QVQLEQSGAEVKKPGASVKVSCKASGYTFTSYDINWVRQATGQGLEWLGWMNPKRGNTGYAQKFQGRVTMTRNTSISTAHMELSSLRSEDTAVYYCARGRYSREDYYYYYDMDVWGQGTTVTVSS
VL: DIQMSQSPSSLSASVGDRVTITCRASQGIRNDLGWYQQKPGKAPKRLICAASRLQSGVPSRFSGSGSGTEFTLTISSLQPEDFAIYYCLQHHDYPFTFGPGTKVDIK
notes: as for B1
B12: 184E7 (antibody, V domains shown)
VH: QVQLVQSGAEVKTPGASVKVSCRASGYTFTSYNMHWVRQVPGQGLEWMGWINPNNGGSNYTQKFQGRVTMTRDTSISTAYMELSRLRSDDTAVYYCARKFGDWGQGTLVTVSS
VL: DIQMTQSPSSRSASIGERVTITCRASQGISNYLAWIQQKPGTAPKSLIYAASSLQSGVSSRFSGSGFGTDFTITISSVQREDFATYYCQQYNGYPFTFGHGTKVDIK
notes: as for B1
B13: 7G4 (antibody, V domains shown)
VH: QVQLVESGGGVVQPGRSLRLSCAASGFTFNNYVMHWVRQAPGKGLEWVAVIWYDGSNKYYADSVKGRFTISRDNSKNTLYLQMTSLRAEDTAVYYCAREKYSSNWYDYGMDVWGQGTTVTVSS
VL: DIQMTQSPSSLSASVGDRVTITCRASQGIRNDLGWYQQRPGKAPKRLIYAASSLQSGVPSRFSGSGSGTEFTLTISSLQPEDSATYYCLHQYSYPRTFGQGTKVEIK
notes: as for B1
B14: 5E5 (antibody, V domains shown)
VH: B13 VH with N30S, T84N, A97T, K100V, N104G
VL: B13 VL with R39K, S83F, H90Q, Q91H, I106V
notes: as for B1
B15: 176H4 (antibody, V domains shown)
VH: QVQLVESGGGVVQPGRSLRLSCAASGFTFSSYGMHWVRQAPGKGLEWVAIIWYDGSYKYYADSVKGRFTISRDNSKNTLYLQMSSLRAEDTAVYYCARDAHDFWSGYFAYWGQGALVTVSS
VL: DIVMTQTPLSLSVTPGQPASISCKSSQSLLHGDGKTYLYWYLQKPGQPPQLLIYEVSNRFSGVPDRFSGSGSGTDFTLKISRVEAEDVGIYYCMQSIQIPWTFGQGTRVEIK
notes: as for B1
B16: 4H6 (antibody, V domains shown)
VH: QVQLVQSGAEVKKPGASVKVSCKASGYTFTDYYLHWVRQAPGQGLEWMGWIHPNSGGTNYAQKFQGRVTMTRDTSISTAYMGLSSLRSDDTAVYYCARDGTSSFDYWGQGTLVTVSS
VL: DIQMTQSPSSVSASVGDRVTITCRASQGISRWLAWYQQKPGKAPKLLIYGASSLQSGVPSRFSGSGSGTDFTLTISSLQPEDFAIYYCQQANSFPFTFGPGTKVDIK
notes: as for B1
B17: 72G9 (antibody, V domains shown)
VH: EVQLVESGGGLVKPGGSLRLSCAASGFTFSSYSMNWVRQAPGKGLEWVSSISGSSSYIYYADSVKGRFTISRDNAKNSLYLQMNSLRAEDTAVYFCARGGSRGFDPWGQGTLVTVSS
VL: B16 VL with V11L, G28S, S30T, R31S, W32Y, A34N, G50T, I85T, A91S, N92H
notes: as for B1
B18: 7E11 (antibody, V domains shown)
VH: QVQLVESGGGVVQPGRSLRLSCAASGFTFSSFGMHWVRQAPGKGLEWVAIIWHDGSNKYYADSVKGRFTISRDNSNNTLYLQMSSLRAEDTAVYYCARDLSMGGMDVWGQGTTVTVSS
VL: DIQMTQSPSSLSASVGDRVTIACRASQNIISYLNWYQQKPGKAPKFLIYTASSLQSGVPSRFSGSGSGTDFTLTISSLQPEDFAIYYCQQTYSTPLTFGGGTKVEIK
notes: as for B1
B19: 194A4 (antibody, V domains shown)
VH: QVQLVQSGTEVKKPGASLKVSCKASGYTFTVYYLNWVRQAPGQGLEWMGWINPNSGGTNYAQKFQGRVTMTRDTSISTAYMELSRLRSDDTAVYYCARGYDILTGWGQGTLVTVSS
VL: EIVLTQSPGTLSLSPGERATLSCRASRGVSNIYLAWYQQKPGQAPRLLIYGASNRATGIPDRFSGSGSGTDFTLTISRLEPEDFAVYYCQHNDYSMFTFGPGTKVDIK
notes: as for B1
B20: 22G5 (antibody, V domains shown)
VH: EVQLLESGGGLVQPGGSLRLSCAASGFTFSSYAMNWVRQAPGMGLEWVSVISRSGGYTYYADSVKGRFTISRDNSKNTLYLQMNSLRAEDTAVYYCASRLAVAGSEAFDIWGQGTLVTVSS
VL: DIQMTQSPSSLSASVGDRVTITCRASQNISSYLNWYQQKQGKAPKLLIYAASSLQNGVPSRFSGRGSGTDFTLTISSLQPEDFATYYCQQSYRTPLFTFGPGTKVDFK
notes: as for B1

Each binder was assayed against T1, Human ASGR-2 (assay: FACS on transfected HEK 293 cells; binding = signal at least 2x irrelevant IgG).
Experimental: Human ASGR-1-specific, ligand competing antibody samples were tested for binding to ASGR-1 from other species (cynomologus monkey ASGR-1, mouse ASGR-1, rat ASGR-1, dog ASGR-1, and pig ASGR-1) as well as to human ASGR-2 in FACS binding assays at normalized antibody concentrations. For cell-based assays, HEK 293 cells expressing the appropriate antigen of interest were mixed with antibody sample or controls, incubated for 1 hour at 4° C., and then washed twice. Cells with bound antibody were then incubated with Alexa Fluor® 647 IgG Fc fragment-specific detection antibody and 7-AAD viability stain for 15 minutes at 4° C., washed once and resuspended in FACS buffer. Samples were analyzed using a BD Accuri™ Flow Cytometer and an Intellicyt HyperCyt Autosampler. As a negative control, supernatants and controls were also screened against HEK 293 cells transfected with empty parental vector. […] For membrane-prep binding assays, ASGR-1 species specific membrane preps were used to coat LumAvidin® microspheres (beads) and tested for binding to selected hybridoma supernatants or controls. Briefly, ASGR-1 species specific membrane preps were incubated with streptavidin-coated LumAvidin® beads for 45 minutes in the dark at room temperature and washed twice. Beads were resuspeneded in FACS buffer containing Stabilguard®. Antigen-bound beads were then incubated with normalized antibody sample for 1 hour in the dark at room temperature, washed twice, incubated with Alexa Fluor® 488 IgG Fc fragment-specific detection antibody for 15 minutes in the dark at room temperature, washed once and finally resuspended in FACS buffer. Samples were analyzed using an Intellicyt iQue™ Screener Platform. FACS buffer supplemented with 1 mM Calcium Chloride was used in all steps. As a negative control, supernatants and controls were also screened against a non-ASGR-1 antigen membrane prep coated on the LumAvidin® beads.

Binding result, no binding:
B1, B2, B3, B4, B5, B6, B7, B8, B9, B10, B11, B12, B13, B14, B15, B16, B17, B18, B19, B20
